Biological target: the molecule itself
Assay: SEC; Superdex-200; apo PWWP domain at higher initial concentration (proportion of dimer rises with concentration); 20 mM Tris-HCl, 5 mM EDTA, 5 mM beta-ME, pH 7.5

B1: human HDGF PWWP domain (residues 1-100) (domain or fragment)
chain: not shown
notes: human hepatoma-derived growth factor (HDGF), N-terminal PWWP domain, the first 100 amino acids; Subcloned into the NdeI and EcoRI sites of pET28a; also called apo PWWP domain; HDGF PWWP_(1-100) domain; source: E. coli BL21-Codon Plus-RIL, purified (Ni2+-NTA, Hitrap Q, Superdex-200)
stoichiometry N: 2

— PMC5762634, “Domain swapping and SMYD1 interactions with the PWWP domain of human hepatoma-derived growth factor” (Scientific Reports, 2018)
